Patent publication US12545899B2, “Luciferase enzymes for use with thermostable luciferins in bioluminescent assays” (Promega Corporation, priority 2018, dated 2026)

How the values were obtained:
Type in all cases: biochemical
[1] = Luminescence of ATG-3707 variants (second round epPCR) with CS0333
Description: Reagent compositions included CS0333 diluted from 20 mM to 2 mM in reaction buffer with 2 mM ATP. […] Reactions were incubated at 25° C. for 3 min, and luminescence was read and then normalized to ATG-3707 activity tested in parallel.

[2] = Kinetic analysis of ATG-3707, ATG-4117 with CS0280
Description: (§1) Kinetic tests of these luciferase enzyme variants were also conducted. […] Reagent compositions included 0.005 mg/ml luciferase enzyme variant+1 mM ATP, and 0.1 fM to 1 mM substrate in Bright-Glo™ (BG) or Detection Reagent (DR) buffers. The composition was incubated for 3 mins and read on GloMax® Multi+platform.
(§2) Table 8 below includes representative results of kinetic analysis of the thermostable luciferase variants of Ppe (SEQ ID NO: 1), ATG-3707, and ATG-4117. The Ppe variant (SEQ ID NO: 1) was tested with D/L-luciferin, and ATG-3707, and ATG-4117 were tested with CS0280 and CS0333.

[3] = Activity and kinetics of ATG-3707 with CS0333 (FIGS. 19B-19D)
Description: Reagent compositions included 0.005 mg/ml enzyme in 1×TBS+0.5% Prionex, 1 mM substrate in buffer, and 1 mM ATP.

[4] = Vmax and Km of ATG-3707 with CS0333
[5] = Vmax and Km of Ppe variant and ATG-3707 with D/L-luciferin
[6] = Kinetic analysis of ATG-3707, ATG-4117 with CS0333
Description: as §1, §2

[7] = Kinetic analysis of Ppe variant, ATG-3707, ATG-4117 with D/L-luciferin
Description: as §1, §2

[8] = Kinetic analysis of ATG-3707 variants with CS0333
Description: Additionally, Table 5 (below) includes kinetic analysis of the ATG-3707 variants identified above. Reagent compositions included CS0333 serially diluted 10-fold from 1 mM to 10 fM in reaction buffer with 2 mM ATP. […] Reactions were incubated at 25° C. for 3 min, and luminescence was read and then normalized to ATG-3707 activity tested in parallel. […] Since C2157D2 was selected for improved brightness in CellTiterGlo® buffer over ATG-3707, it still had beneficial properties.

B1: ATG3707: SEQ ID NO: 2; H244W+T344A+I396K+S193A+N228D+L305F+S306P+I109V (protein)
chain: MADKNILYGPEPFYPLEDGTAGEQMFDALSRYAAIPGCIALTNAHTKENVLYEEFLKLSCRLAESFKKYGLKQNDTIAVCSENSLQFFLPVIASLYLGIIVAPVNDKYVERELIHSLGIVKPRIVFCSKNTFQKVLNVKSKLKSIETIIILDLNEDLGGYQCLNNFISQNSDSNLDVKKFKPYSFNRDDQVAAIMFSSGTTGLPKGVMLTHKNIVARFSIAKDPTFGDAINPTSAILTVIPFHWGFGMMTTLGYFTCGFRVVLMHTFEEKLFLQSLQDYKVESTLLVPTLMAFLAKSALVEKYDFPHLKEIASGGAPLSKEIGEMVKKRFKLNFVRQGYGLTEATSAVLITPKGDAKPGSTGKIVPLHAVKVVDPTTGKILGPNEPGELYFKGPMKMKGYYNNEEATKAIIDNDGWLRSGDIAYYDNDGHFYIVDRLKSLIKYKGYQVAPAEIEGILLQHPYIVDAGVTGIPDEAAGELPAAGVVVQTGKYLNEQIVQDYVASQVSTAKWLRGGVKFLDEIPKGSTGKIDRKVLRQMLEKHTNGHHHHHHHH
Luminescence (RLU) BrightGlo ([1]; BrightGlo buffer, 25° C., 3 min): 3887670 RLU | Normalized Luminescence BrightGlo ([1]; BrightGlo buffer, normalized to ATG-3707): 1.00 | Luminescence (RLU) CellTiterGlo ([1]; CellTiterGlo buffer, 25° C., 3 min): 644571 RLU | Normalized Luminescence CellTiterGlo ([1]; CellTiterGlo buffer, normalized to ATG-3707): 1.00 | Luminescence (RLU) Detection Reagent ([1]; Detection Reagent buffer, 25° C., 3 min): 5157310 RLU | Normalized Luminescence Detection Reagent ([1]; Detection Reagent buffer, normalized to ATG-3707): 1.00 | Km ([2]; BrightGlo): 4.53 µM | Vmax (RLU) ([2]; BrightGlo): 5,791,823 RLU | Km ([2]; Detection Reagent): 93.5 µM | Vmax (RLU) ([2]; Detection Reagent): 4,706,312 RLU | activity with CS0333 comparable to that of Ppe variant with luciferin ([3]; Bright-Glo and Detection Reagent buffers): ≤ 10 × | loss of performance with D/L-luciferin as compared to CS0333 ([3]; dimmer): about 1 log | Km ([4]; BrightGlo Buffer): 0.539 µM | Vmax (RLU) ([4]; BrightGlo Buffer): 3,724,104 RLU | Km ([4]; Detection Reagent Buffer): 4.82 µM | Vmax (RLU) ([4]; Detection Reagent Buffer): 5,458,906 RLU | Km ([5]; BrightGlo Buffer): 0.03 µM | Vmax (RLU) ([5]; BrightGlo Buffer): 2,033,235 RLU | Km ([5]; CellTiterGlo buffer): 91.7 µM | Vmax (RLU) ([5]; CellTiterGlo buffer): 4,840,502 RLU | Km ([5]; Detection Reagent Buffer): 19.4 µM | Vmax (RLU) ([5]; Detection Reagent Buffer): 4,499,483 RLU | Km ([6]; BrightGlo): 3.61 µM | Vmax (RLU) ([6]; BrightGlo): 828,567 RLU | Km ([6]; Detection Reagent): 148 µM | Vmax (RLU) ([6]; Detection Reagent): 42,242 RLU | Km ([7]; BrightGlo): 0.0272 µM | Vmax (RLU) ([7]; BrightGlo): 2,596,835 RLU | Km ([7]; Detection Reagent): 1.18 µM | Vmax (RLU) ([7]; Detection Reagent): 6,820,106 RLU | Km ([8]; BrightGlo): 6.25 µM | Vmax (RLU) ([8]; BrightGlo): 4,240,329 RLU | Km ([8]; Detection Reagent): 113 µM | Vmax (RLU) ([8]; Detection Reagent): 3,695,670 RLU
